# Data reported in paper PMC4191604 (Journal of Medicinal Chemistry, 2014).
# T1: GBP1 mutant K51A (human, UniProt P32455 1-592, K51A)
# T1 sequence (looked up): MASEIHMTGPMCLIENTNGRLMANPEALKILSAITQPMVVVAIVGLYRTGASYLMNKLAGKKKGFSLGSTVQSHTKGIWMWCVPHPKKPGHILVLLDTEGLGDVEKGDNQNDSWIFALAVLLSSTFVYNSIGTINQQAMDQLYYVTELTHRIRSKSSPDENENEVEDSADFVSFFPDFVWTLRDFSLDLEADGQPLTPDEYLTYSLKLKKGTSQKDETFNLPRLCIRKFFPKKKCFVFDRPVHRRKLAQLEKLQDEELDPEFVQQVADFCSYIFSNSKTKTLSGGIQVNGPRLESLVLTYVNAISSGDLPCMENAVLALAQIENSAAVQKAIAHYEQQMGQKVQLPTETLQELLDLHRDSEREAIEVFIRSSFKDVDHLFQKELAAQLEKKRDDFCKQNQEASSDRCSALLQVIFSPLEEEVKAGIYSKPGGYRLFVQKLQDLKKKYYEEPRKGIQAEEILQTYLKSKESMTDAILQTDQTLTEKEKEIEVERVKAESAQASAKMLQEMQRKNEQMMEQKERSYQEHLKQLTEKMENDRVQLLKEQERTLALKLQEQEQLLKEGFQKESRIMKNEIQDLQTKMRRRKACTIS
# T2: GBP1 mutant Q72A (human, UniProt P32455 1-592, Q72A)
# T2 sequence (looked up): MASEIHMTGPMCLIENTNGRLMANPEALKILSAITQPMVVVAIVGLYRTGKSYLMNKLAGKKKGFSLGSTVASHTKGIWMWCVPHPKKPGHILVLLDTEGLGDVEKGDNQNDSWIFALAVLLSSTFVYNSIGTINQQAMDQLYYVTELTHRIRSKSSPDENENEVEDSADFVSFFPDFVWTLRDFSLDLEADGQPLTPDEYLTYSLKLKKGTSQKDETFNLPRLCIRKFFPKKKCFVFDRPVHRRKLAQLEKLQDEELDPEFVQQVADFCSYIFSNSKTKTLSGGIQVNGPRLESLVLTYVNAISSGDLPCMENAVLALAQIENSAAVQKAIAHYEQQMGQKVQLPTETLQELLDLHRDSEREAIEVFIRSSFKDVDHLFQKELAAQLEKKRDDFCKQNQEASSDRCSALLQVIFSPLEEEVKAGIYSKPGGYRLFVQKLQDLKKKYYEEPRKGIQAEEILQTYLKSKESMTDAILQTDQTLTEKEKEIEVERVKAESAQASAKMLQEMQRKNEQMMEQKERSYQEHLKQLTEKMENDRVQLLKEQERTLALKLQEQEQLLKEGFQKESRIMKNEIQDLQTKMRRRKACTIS
# T3: GBP1 GTPase (human GBP1, recombinant wild type) (human, UniProt P32455 1-592)
# T3 sequence (looked up): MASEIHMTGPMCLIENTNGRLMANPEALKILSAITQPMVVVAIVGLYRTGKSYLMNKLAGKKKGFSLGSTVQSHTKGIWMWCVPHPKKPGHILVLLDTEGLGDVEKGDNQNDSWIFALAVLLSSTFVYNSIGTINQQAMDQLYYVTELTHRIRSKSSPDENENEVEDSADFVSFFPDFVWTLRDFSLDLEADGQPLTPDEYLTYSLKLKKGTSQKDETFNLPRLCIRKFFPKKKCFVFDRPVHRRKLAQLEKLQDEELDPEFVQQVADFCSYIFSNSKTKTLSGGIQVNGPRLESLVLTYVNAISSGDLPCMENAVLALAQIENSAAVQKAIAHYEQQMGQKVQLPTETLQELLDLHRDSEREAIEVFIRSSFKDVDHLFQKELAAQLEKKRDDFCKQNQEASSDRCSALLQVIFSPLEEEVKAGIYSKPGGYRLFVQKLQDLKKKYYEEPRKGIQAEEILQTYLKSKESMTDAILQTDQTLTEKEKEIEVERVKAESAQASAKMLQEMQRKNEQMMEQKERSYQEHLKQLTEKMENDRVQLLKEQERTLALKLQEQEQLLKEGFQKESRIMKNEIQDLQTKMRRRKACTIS
# T4: GBP1 mutant R227A/K228A (human, UniProt P32455 1-592, R227A | K228A)
# T4 sequence (looked up): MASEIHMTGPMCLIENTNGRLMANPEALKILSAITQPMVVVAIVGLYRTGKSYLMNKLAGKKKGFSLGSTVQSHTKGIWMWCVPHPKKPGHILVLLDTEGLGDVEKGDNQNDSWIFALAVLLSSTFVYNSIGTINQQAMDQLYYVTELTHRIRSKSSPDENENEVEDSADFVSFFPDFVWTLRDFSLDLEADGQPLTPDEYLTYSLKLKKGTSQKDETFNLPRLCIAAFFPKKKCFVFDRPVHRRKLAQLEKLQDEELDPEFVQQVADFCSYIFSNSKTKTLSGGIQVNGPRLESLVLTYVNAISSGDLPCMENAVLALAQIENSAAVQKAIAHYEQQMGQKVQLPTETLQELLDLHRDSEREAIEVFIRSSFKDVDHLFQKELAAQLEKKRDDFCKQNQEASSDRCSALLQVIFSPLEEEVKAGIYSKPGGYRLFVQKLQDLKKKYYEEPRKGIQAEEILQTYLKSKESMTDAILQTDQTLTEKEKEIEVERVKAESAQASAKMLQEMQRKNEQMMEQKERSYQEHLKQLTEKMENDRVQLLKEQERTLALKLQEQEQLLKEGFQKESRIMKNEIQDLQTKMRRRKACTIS
# How the values were obtained:
# Test in all cases: SPR
# GBP1 mutant K51A = molecular target: T1, GBP1 mutant K51A
# GBP1 mutant Q72A = molecular target: T2, GBP1 mutant Q72A
# [1] = molecular target: T3, GBP1 GTPase (human GBP1, recombinant …)
# GBP1 mutant R227A/K228A = molecular target: T4, GBP1 mutant R227A/K228A
binder,measurement,setting,value
PIM1 (recombinant) (enzyme) not shown,Kd,GBP1 mutant K51A,26 ± 11 nM
same,Kd,GBP1 mutant Q72A,161 ± 17 nM
same,Kd,[1],30 ± 10 nM
same,Kd,GBP1 mutant R227A/K228A,61 ± 4 nM
